Assay results as given in the NTF2 design screens of Basanta et al. (2020).

Experiment: protease stability score; higher = more stable; yeast display proteolysis, trypsin and chymotrypsin;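 further: relative to predicted unfolded state with 0 unfolded-like and 1 meaning tenfold more protease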

First: SENDELNEKLVRDWIISLHTGDEETLRDLLDPHVKVEVGEKRMHGREEYVTHLLHHARRADHIRIEIHQVHNQGDKVNIDGTLHIDVNGKHQHHRVTIIASKVNGKWLIESINIH
Second: HELVEEAITMWKEMLVDELTGDEKKTSQNLDPNYKMVIDGQEIHGMEEWSRFLKEIRLHHEDFHVKDARVIDGRVKIDGHIKGTLEINGKRTRTETDVHIILIKINGRWVTHSVHFK
The protease stability score of the first is lower: 1.03 for the first, 1.24 for the second.

First: SEDEKIARDVIKLVLHAMRTGDEELFLKLADPNVRILFDGKELHGREEVIRFRERIDHFDIKRFDLRDMKIINGVMHVDVEIDGVLEVDGVRERRIEKVRWVVLKVDGRWRTHSIEIV
Second: DHHEKHLKHIFHLYIRAWITGNEKEMQDLADPNVRMHVGDKHVHGREEVRRLHHHLLTHIRLDHFHIDDHRVYDGVVEVKGIEDHNVNGQRHRFESTWIIVIVNGRIEEIEIRVH
The protease stability score of the first is higher: 2.69 for the first, 1.16 for the second.

First: DELDEQVEELARDIIRNWHTGDEERWEHLADPHVRVTIDGRLHIGREEAMKMLRHWLKRIDHITVNIRRIHVFNGRSEVHSELTMHVGDKNIHHHEIINIVIVDGRIHNQEIHLK
Second: DEDTKEADDFTKIWAKSVETGDEDMLKHLADPHVRVEIGDKVFIGRHFWLKVLRHIRVESVHVEDYKVQGEKVEYHVRFEVDINGQKVESTRRMIVRKVNGRWILETVILE
The protease stability score of the first is lower: 1.39 for the first, 1.49 for the second.

First: DHEEKHMIKIARLILLLWFTGDEDTFSRLADPNVRVIIIWNGKEIHSHGMERFSEDRKRHEEEMRLKDFRIDEVRAVGDKIHMRVTIHLIQGDKEREIDLEIRIVLVNGKLKTIEFIFH
Second: DEDERVMRTLLELLLRSHNTGDEDSYKQLLDPDTRVHVDGVDFHGMEFARTLARHWRVKHVELKDVRSQGNKIEADIHTVGVINGQELRTETHIITEKVNGRWVLHSISIR
The protease stability score of the first is higher: 2.63 for the first, 1.46 for the second.

Compared with “DEEEELAIHFWRLFLHLIITGDWERLTELMDPNVRIDINGKEIHGRELASEHLRKLMEHARFRDHHLEDVKIYDGVVEMHGRIDGRFDGKDVDTRMIVYTVKVNGKWLLKRVVHL”, “DERTEYFIREAREMLRDWVTGDWKRLHELMDPNARQDVNGVKNVGRDELSEFFEKFRERFDVYELRITEERHQGNKFIVKGDFHSNQGEFTFHHELEVHIVVVNGQFKRIEMRIR” is lower in protease stability score: 2.32 for the first, 1.55 for the second.

First: SEEESKERHNEKFLKTVHKTGDEHSWRKMLDPDVRVEYGDKHDHGWEAIERFRKELGIERIHIDDRKIRHNEVVNGQVYLHEELVGTVNGVHVQVKMLIIFHKVDGKWHVELVQIN
Second: SDEEEEVREYYEKWFHDVYTGDEDSFRDMLDPHVKVEINGKELHGRENAEKFEKRMGVDHLNIRRFHFWDGRLEIRGESEYGDKRFKTEIHAIKINGRWVVKLIRFE
The protease stability score of the first is lower: 0.559 for the first, 0.761 for the second.

Going from “SEDHHETQRALELLVTFLRTGDEHTLERLMDPDTRSIIDGVELHGREDMKEVLEWLVKQADHLESVHVRYLNVQGDKAQIHVELRGRFNGKHSIHEVHITTVKINGKWLITEVEFR” to “SEKERMIREMLEETMRSLKTGDEDSIHRLFDPHTRSEIDGKEYHGREEVSKWVRHARIHDFQLEDVRIQGNKAILIGVMHGRVDGRKFTTEVRIFSVKVDGQWVNENLELH”, the protease stability score falls from 1.93 to 0.993.

First: DKEHKESTKATHDVLRSWKTGDERFREELADPNARMEFNGREHVGREFMSELLRHLWEELGVDHMELKRVIIQGDKIHIDMDLTVGDKSIHLHVTVQKINGKWIIKSIRLELT
Second: DEHETDKQLAIDLLIEVIQTGDEHTTRRLADPNVKVVIDGREFHGRDFLARMIHEMRFHRIHVEEVRVIDGVVHSNLRVRGEYNGKHVDTRSSIHIKKVNGRWVIESVLIE
The protease stability score of the first is lower: -0.192 for the first, 2.04 for the second.

First: DEEEEMSKELAELLVKAFVTGDWEEMTSMADPRTRTDVNGKDLHGWDESLRVIEELLRKMGIKHSNIHTVRVQGNWIHIDIRVIVGDKYHEVEIRVLVVNGRLKYLEYRIK
Second: TEEDEMWKELSDILLEIHETGDWDRLIRLVDPDVKVNIDGKDLHGWQEVAHTIRVLLEQFKGVKIIIRHVEIQGDKVHIHMEIRQGDKHYEVHLHYIVVNGKIKQMHMHRR
The protease stability score of the first is higher: 1.98 for the first, 1 for the second.

Compared with “NDDQKELEHIMKLLSRALETGDEEKLRELFDPHTRIHINGVTRIGWEHMKHHFEDLGLSNFHFHLRVRHFDVQGDKARVEGELVVNFNGKETSHDVEWRLEKVNGRWIVKSIIVG”, “EEWEKAIKFAVKLYKEIMETGDEDMQSHLFDPNVRISVGNKERHGMEEVTKIMTEWRLDDHHVNHVELQGNKVSSDGEINGTFDGRRHRVRIVLIILKVNGVWRIEEVRVI” is lower in protease stability score: 2.27 for the first, 0.162 for the second.

Compared with “HEDHERVRHIIERWWHILETGDEDEMEDMADPNVQIYIGDKRHHGREILAEHVRKFKGKKVNIKRLDIQGDKFRVDGDVHYDGRHHRVRIEIDVVDGRIKRLRIEIE”, “HSDEEKSRRATKWFIKIFHTGDEDRFHELADPNTRVIIGDKDFIGREKAVDAIHRIWEHLGIDVYDVEDIRIINGVVEVDTSFHINGRTIKTTTRIEKVNGQWVVDEVHFK” is lower in protease stability score: 1.38 for the first, 1.23 for the second.

Compared with “RHEERHLEEKLQRLLHAWLTGDEDELTELADPDVRLKINGQHYIGWEQFFKALTDLRREMRIHDLKIKRKEIDGDKLVLDGETDGEINGVKRLHKTEIIIIMIDGRLRRVEFRQH”, “DELWELAFFIMKILLHLHLTGDEEMWSSYADPNVRFTLRVGDKEVKRHGMEDVEKFQTELEREIRVDHFDERRTHYYNGRARVDGHIDGLVNGRPVHFRTELHVHTIDGVVREVEIIIE” is lower in protease stability score: 0.618 for the first, -0.045 for the second.

Going from “SEEDRLHEEWIEESFKIWETGDEERFWKMVDPEYLFRLDIDGVHLESHGRENAREHFREQLSRLGIKYLDLHEIHLQGNKAILDVRVNFNGQERHVIIRLLIIDGRIKKREIEIR” to “SEQERKVREWTEEEIRWFLTGDEDIWSHFADPNARSVHHIGNKTIHTHGMEDVTRVIRELLQELGADHRTVHELEIQGDKSTVNLEIRIGDKTYEVHIIIIIINGKRKYHIVHFRVQ”, the protease stability score falls from 1.41 to 0.982.

Compared with “SELDEYMHRMMKWILEEEITGDEERFLHLADPHVRSRIDVGEWKWDHHGRDAIRVYREQVDHITHVKVSNFHVQGDKAISDVHEEVRVGDKHVIRRIEIIVIVIDGKVHSIELEIK”, “DENHEVAEYILKILVESLETGNEELFKRLIDPNVRIEINGVEVHGWQFWIDHIDELRIRRVEAILRDAREYNGRIDMDTELKMDGEIDGVRTETSRRVRMVLEKVNGRWYVREIRIE” is higher in protease stability score: 0.357 for the first, 2.39 for the second.

Going from “DEQEEHLHEMVRRFLHHFLTGDWKTLHRMFDPNARYHINGQDHVGREEINRFWREHWEHARIHDLRIKSVELFENRSHIIGHLDGNIDGKEVRTDVEIILVIVNGRVRYIEVRQH” to “DDDEEIIERALRLWEKFEQTGDEKRLDEMIDPNVRVNYNGVIHHGRDHLRHFFSRFDHFKRLHIEDSRFFNGKIIIHTRLEGRIGDKERTVNVIIIALKVDGKWFLESWSMS”, the protease stability score falls from 1.52 to 0.618.

Going from “SEEHRLMEEIARIFIHLFLTGDEELFKHLADPNTRTHIHYGDKHIDLHGREQTTKFWKEHLDRVDHVEIRINDIRSIGDKAHIDGVLIMLVNGREHTIHIEIIVVVINGKDTEFEFRLI” to “STEEEELRDYLEILDHLWKTGDFDRLLNLIDPHVRLEVNGREHHGMRWFETIIRKLGHDNISVHINNEKVHIVDGRAHWEGKKILIYDGRFHDFHTHLFFLKIDGKWKLKEVEYH”, the protease stability score rises from 0.966 to 1.26.

Going from “SEEHEISERLAWMIFELYRTGNEQSIRHLMDPRARIDVNGKEIHGRHIWKERFEEHLVFFKNLRFHLDDVDVQGDKIDIHGTNRFDGRHVRFDLHIHVVDGRLKVITVRIDER” to “DDEKARQQVREFIRAMETGDEDSMVQQLDENAHVHIGDHVWRGREQARNAFKEFVKQFDRIEVKRVEYRNGDVVIDAVANVNGVRVRIIFKIHIHNGRIKNLRIEYRDEEEKKQLDG”, the protease stability score rises from 1.55 to 2.29.

First: SEEEEIVEKMARDLFEAMRTGDEDTLLKLLDPNVKHHWNGVEYHGWHDLHHWVERFKNMKVHFRINSVKVIGEKVHIKGELNLIFNGKIIRTDVDIHINLFNGRIKESTSDTN
Second: TEDERMVSEHLKQWLHSLRTGDEDTIQRLFDPHTRIIFEGHEFIGMEDMEEWLTKFHEEARSHKLIIKRIHIIGDKVHVEGVLDGEYNGRRHELKVIIIALKINGRWVMHQIEIR
The protease stability score of the first is higher: 2.04 for the first, 1.97 for the second.
